Laboratory results published in publication PMC11398526 (bioRxiv, 2024).

B1: progesterone receptor isoform A (PR-A), full-length, Strep II tagged (natural protein)
chain: MSRSGCKVGDSSGTAAAHKVLPRGLSPARQLLLPASESPHWSGAPVKPSPQAAAVEVEEEDGSESEESAGPLLKGKPRALGGAAAGGGAAAVPPGAAAGGVALVPKEDSRFSAPRVALVEQDAPMAPGRSPLATTVMDFIHVPILPLNHALLAARTRQLLEDESYDGGAGAASAFAPPRSSPCASSTPVAVGDFPDCAYPPDAEPKDDAYPLYSDFQPPALKIKEEEEGAEASARSPRSYLVAGANPAAFPDFPLGPPPPLPPRATPSRPGEAAVTAAPASASVSSASSSGSTLECILYKAEGAPPQQGPFAPPPCKAPGASGCLLPRDGLPSTSASAAAAGAAPALYPALGLNGLPQLGYQAAVLKEGLPQVYPPYLNYLRPDSEASQSPQYSFESLPQKICLICGDEASGCHYGVLTCGSCKVFFKRAMEGQHNYLCAGRNDCIVDKIRRKNCPACRLRKCCQAGMVLGGRKFKKFNKVRVVRALDAVALPQPVGVPNESQALSQRFTFSPGQDIQLIPPLINLLMSIEPDVIYAGHDNTKPDTSSSLLTSLNQLGERQLLSVVKWSKSLPGFRNLHIDDQITLIQYSWMSLMVFGLGWRSYKHVSGQMLYFAPDLILNEQRMKESSFYSLCLTMWQIPQEFVKLQVSQEEFLCMKVLLLLNTIPLEGLRSQTQFEEMRSSYIRELIKAIGLRQKGVVSSSQRFYQLTKLLDNLHDLVKQLHLYCLNTFIQSRALSVEFPEMMSEVIAAQLPKILAGMVKPLLFHKK
B2: steroid receptor coactivator 3 (SRC3), full-length, Strep II tagged (natural protein)
chain: not shown

Experiments:
[1] = target: B2; test: HDX-MS
[2] = target: T1, histone acetyltransferase p300, full-length, Strep II tagged (human, UniProt Q09472 1-2414); test: cross-linking
[3] = target: T1, histone acetyltransferase p300, …; test: HDX-MS
[4] = target: B1; test: SEC-MALS

T1 sequence (Q09472 whole entry): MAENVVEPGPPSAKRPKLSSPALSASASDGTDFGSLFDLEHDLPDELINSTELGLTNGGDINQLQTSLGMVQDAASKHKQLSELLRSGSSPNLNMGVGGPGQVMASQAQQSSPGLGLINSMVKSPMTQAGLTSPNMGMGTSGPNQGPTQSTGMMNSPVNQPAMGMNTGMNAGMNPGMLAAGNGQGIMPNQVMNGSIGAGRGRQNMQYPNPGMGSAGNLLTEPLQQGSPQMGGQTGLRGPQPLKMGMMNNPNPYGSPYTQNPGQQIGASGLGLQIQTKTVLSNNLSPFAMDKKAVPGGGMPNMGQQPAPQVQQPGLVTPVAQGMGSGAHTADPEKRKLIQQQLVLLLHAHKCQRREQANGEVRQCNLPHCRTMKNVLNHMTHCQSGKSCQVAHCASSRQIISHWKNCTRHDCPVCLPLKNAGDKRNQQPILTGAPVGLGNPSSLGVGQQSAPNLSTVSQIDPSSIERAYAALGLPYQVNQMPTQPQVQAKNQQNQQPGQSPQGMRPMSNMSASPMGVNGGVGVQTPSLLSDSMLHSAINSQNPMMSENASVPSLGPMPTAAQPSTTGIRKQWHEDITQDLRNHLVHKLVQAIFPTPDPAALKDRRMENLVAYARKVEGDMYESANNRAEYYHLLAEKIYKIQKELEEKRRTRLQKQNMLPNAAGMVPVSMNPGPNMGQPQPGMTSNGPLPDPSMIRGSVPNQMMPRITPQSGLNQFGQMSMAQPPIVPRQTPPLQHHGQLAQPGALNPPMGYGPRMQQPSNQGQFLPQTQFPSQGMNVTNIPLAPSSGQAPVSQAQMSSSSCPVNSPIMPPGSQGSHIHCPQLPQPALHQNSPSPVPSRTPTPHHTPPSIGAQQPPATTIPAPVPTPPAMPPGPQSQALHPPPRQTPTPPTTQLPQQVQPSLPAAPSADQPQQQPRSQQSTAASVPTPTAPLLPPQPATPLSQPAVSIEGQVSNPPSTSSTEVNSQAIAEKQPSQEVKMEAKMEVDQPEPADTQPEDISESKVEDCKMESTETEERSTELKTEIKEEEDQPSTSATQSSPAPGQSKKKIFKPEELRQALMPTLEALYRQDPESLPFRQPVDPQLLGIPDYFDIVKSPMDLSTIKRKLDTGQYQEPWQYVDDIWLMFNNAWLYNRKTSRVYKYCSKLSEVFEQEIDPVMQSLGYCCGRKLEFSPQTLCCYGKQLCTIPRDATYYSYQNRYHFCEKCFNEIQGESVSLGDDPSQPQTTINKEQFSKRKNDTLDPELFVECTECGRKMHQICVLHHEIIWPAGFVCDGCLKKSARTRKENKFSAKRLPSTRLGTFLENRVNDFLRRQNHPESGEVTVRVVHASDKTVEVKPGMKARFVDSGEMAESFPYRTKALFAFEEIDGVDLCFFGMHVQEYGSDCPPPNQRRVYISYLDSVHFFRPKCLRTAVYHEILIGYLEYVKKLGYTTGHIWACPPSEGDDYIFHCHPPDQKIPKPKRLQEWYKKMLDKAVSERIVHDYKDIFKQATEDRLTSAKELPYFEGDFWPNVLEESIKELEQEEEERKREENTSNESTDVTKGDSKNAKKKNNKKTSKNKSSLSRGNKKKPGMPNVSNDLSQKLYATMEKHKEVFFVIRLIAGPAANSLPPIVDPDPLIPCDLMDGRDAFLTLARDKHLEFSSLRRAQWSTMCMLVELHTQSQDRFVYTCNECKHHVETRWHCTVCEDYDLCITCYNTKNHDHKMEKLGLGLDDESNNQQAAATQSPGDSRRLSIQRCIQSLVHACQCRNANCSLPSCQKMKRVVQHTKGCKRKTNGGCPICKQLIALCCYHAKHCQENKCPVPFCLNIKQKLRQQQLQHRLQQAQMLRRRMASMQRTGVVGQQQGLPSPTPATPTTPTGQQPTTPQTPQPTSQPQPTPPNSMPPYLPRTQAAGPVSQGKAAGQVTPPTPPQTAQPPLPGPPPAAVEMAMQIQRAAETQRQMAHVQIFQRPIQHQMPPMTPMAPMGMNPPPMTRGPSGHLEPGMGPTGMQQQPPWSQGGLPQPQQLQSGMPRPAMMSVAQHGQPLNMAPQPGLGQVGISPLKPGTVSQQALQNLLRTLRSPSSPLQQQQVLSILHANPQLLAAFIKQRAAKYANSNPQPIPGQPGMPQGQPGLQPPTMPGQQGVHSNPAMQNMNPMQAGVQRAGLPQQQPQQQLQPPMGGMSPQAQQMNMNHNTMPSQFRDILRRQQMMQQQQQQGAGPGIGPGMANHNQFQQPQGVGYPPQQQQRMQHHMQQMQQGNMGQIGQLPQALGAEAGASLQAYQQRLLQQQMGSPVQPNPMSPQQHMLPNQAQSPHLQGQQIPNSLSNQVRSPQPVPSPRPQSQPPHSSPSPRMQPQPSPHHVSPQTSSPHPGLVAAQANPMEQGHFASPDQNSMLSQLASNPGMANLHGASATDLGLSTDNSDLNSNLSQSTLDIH

binding result [1]	binding result [2]	binding result [3]	stoichiometry N [4] [SRC3 per PR-A]	Binder
binds	binds			progesterone receptor isoform B (PR-B), full-length, Strep II tagged (natural protein) MTELKAKGPRAPHVAGGPPSPEVGSPLLCRPAAGPFPGSQTSDTLPEVSAIPISLDGLLFPRPCQGQDPSDEKTQDQQSLSDVEGAYSRAEATRGAGGSSSSPPEKDSGLLDSVLDTLLAPSGPGQSQPSPPACEVTSSWCLFGPELPEDPPAAPATQRVLSPLMSRSGCKVGDSSGTAAAHKVLPRGLSPARQLLLPASESPHWSGAPVKPSPQAAAVEVEEEDGSESEESAGPLLKGKPRALGGAAAGGGAAAVPPGAAAGGVALVPKEDSRFSAPRVALVEQDAPMAPGRSPLATTVMDFIHVPILPLNHALLAARTRQLLEDESYDGGAGAASAFAPPRSSPCASSTPVAVGDFPDCAYPPDAEPKDDAYPLYSDFQPPALKIKEEEEGAEASARSPRSYLVAGANPAAFPDFPLGPPPPLPPRATPSRPGEAAVTAAPASASVSSASSSGSTLECILYKAEGAPPQQGPFAPPPCKAPGASGCLLPRDGLPSTSASAAAAGAAPALYPALGLNGLPQLGYQAAVLKEGLPQVYPPYLNYLRPDSEASQSPQYSFESLPQKICLICGDEASGCHYGVLTCGSCKVFFKRAMEGQHNYLCAGRNDCIVDKIRRKNCPACRLRKCCQAGMVLGGRKFKKFNKVRVVRALDAVALPQPVGVPNESQALSQRFTFSPGQDIQLIPPLINLLMSIEPDVIYAGHDNTKPDTSSSLLTSLNQLGERQLLSVVKWSKSLPGFRNLHIDDQITLIQYSWMSLMVFGLGWRSYKHVSGQMLYFAPDLILNEQRMKESSFYSLCLTMWQIPQEFVKLQVSQEEFLCMKVLLLLNTIPLEGLRSQTQFEEMRSSYIRELIKAIGLRQKGVVSSSQRFYQLTKLLDNLHDLVKQLHLYCLNTFIQSRALSVEFPEMMSEVIAAQLPKILAGMVKPLLFHKK
binds	binds			B1
		binds	0.5	B2
